Measured values from the RNAGym collection of RNA variant scans (doi:10.1093/molbev/msab373).

B1: Azoarcus group I ribozyme (parent)
chain: GUGCCUUGCGCCGGGAAACCACGCAAGGGAUGGUGUCAAAUUCGGCGAAACCUAAGCGCCCGCCCGGGCGUAUGGCAACGCCGAGCCAAGCUUCGGCGCCUGCGCCGAUGAAGGUGUAGAGACUAGACGGCACCCACCUAAGGCAAACGCUAUGGUGAAGGCAUAGUCCAGGGAGUGGCGAAAGUCACACAAACCGG

Variants of: B1
Test: reverse-splicing fitness (ratio to wild type); higher = more active; in vitro selection; Mg2+ level not given
In short: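 An in vitro group I ribozyme library with randomized positions was T7-transcribed and gel-purified. In triplicate, 10 pmol RNA in EPPS pH 7.5 was reacted with 50 pmoles of a 30-nt RNA substrate for 1 h at 37 °C across several added MgCl2 levels (1–48 mM), then stopped with EDTA. Products were reverse transcribed from a substrate-complementary primer, PCR-amplified and sequenced (HiSeq 4000). Fitness is a variant's read proportion after selection over that before, normalised to wild type.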

Row | Variant | reverse-splicing fitness
1 | GUGCCUUGCGCCGGGAAACCACGCAAGGGAUGGUGUCAAAUUCGGCGAAACCUAAGCGCCCGCCCGGGCGUAUGGCAACGCGGAGCCAAGCUUCGGCGCCUGCGCCGAUGGAGGUGUAGUGACUAGACGGCACCCACCUAAGGCGAACGAUAUGGUGAAGGCAUAGUCGAGGGAGGGGCGAAAGUCACACAAACCGG [C82G A111G A120U A145G C150A C169G U176G] | 0.00219
2 | GUGCCUUGCGCCGGGAAACCACGCAAGGGAUGGUGUCAAAUUCGGCGAAACCUAAGCGCCCGCCCGGGCGUAUGGCAACGCGGAGCCAAGCUUCGGCGCCUGCGCCGAUGGAGGUGUAGUGACUAGACGGCACCCACCUAAGGCGAACGAUAUGGUGAAGGCAUAGUCGAGGGAGCGGCGAAAGUCACACAAACCGG [C82G A111G A120U A145G C150A C169G U176C] | 0.00625
3 | GUGCCUUGCGCCGGGAAACCACGCAAGGGAUGGUGUCAAAUUCGGCGAAACCUAAGCGCCCGCCCGGGCGUAUGGCAACGCGGAGCCAAGCUUCGGCGCCUGCGCCGAUGGAGGUGUAGUGACUAGACGGCACCCACCUAAGGCGAACGAUAUGGUGAAGGCAUAGUCGAGGGAGAGGCGAAAGUCACACAAACCGG [C82G A111G A120U A145G C150A C169G U176A] | 0.0128
4 | GUGCCUUGCGCCGGGAAACCACGCAAGGGAUGGUGUCAAAUUCGGCGAAACCUAAGCGCCCGCCCGGGCGUAUGGCAACGCGGAGCCAAGCUUCGGCGCCUGCGCCGAUGGAGGUGUAGUGACUAGACGGCACCCACCUAAGGCCAACGCUAUGGUGAAGGCAUAGUCGAGGGAGAGGCGAAAGUCACACAAACCGG [C82G A111G A120U A145C C169G U176A] | 0.00244
5 | GUGCCUUGCGCCGGGAAACCACGCAAGGGAUGGUGUCAAAUUCGGCGAAACCUAAGCGCCCGCCCGGGCGUAUGGCAACGCGGAGCCAAGCUUCGGCGCCUGCGCCGAUGGAGGUGUAGUGACUAGACGGCACCCACCUAAGGCCAACGCUAUGGUGAAGGCAUAGUCGAGGGAGGGGCGAAAGUCACACAAACCGG [C82G A111G A120U A145C C169G U176G] | 0.00165
6 | GUGCCUUGCGCCGGGAAACCACGCAAGGGAUGGUGUCAAAUUCGGCGAAACCUAAGCGCCCGCCCGGGCGUAUGGCAACGCGGAGCCAAGCUUCGGCGCCUGCGCCGAUGGAGGUGUAGUGACUAGACGGCACCCACCUAAGGCCAACGCUAUGGUGAAGGCAUAGUCGAGGGAGCGGCGAAAGUCACACAAACCGG [C82G A111G A120U A145C C169G U176C] | 0.00181
7 | GUGCCUUGCGCCGGGAAACCACGCAAGGGAUGGUGUCAAAUUCGGCGAAACCUAAGCGCCCGCCCGGGCGUAUGGCAACGCGGAGCCAAGCUUCGGCGCCUGCGCCGAUGGAGGUGUAGUGACUAGACGGCACCCACCUAAGGCCAACGCUAUGGUGAAGGCAUAGUCUAGGGAGCGGCGAAAGUCACACAAACCGG [C82G A111G A120U A145C C169U U176C] | 0.00228
8 | GUGCCUUGCGCCGGGAAACCACGCAAGGGAUGGUGUCAAAUUCGGCGAAACCUAAGCGCCCGCCCGGGCGUAUGGCAACGCGGAGCCAAGCUUCGGCGCCUGCGCCGAUGGAGGUGUAGUGACUAGACGGCACCCACCUAAGGCCAACGCUAUGGUGAAGGCAUAGUCUAGGGAGGGGCGAAAGUCACACAAACCGG [C82G A111G A120U A145C C169U U176G] | 0.00131
9 | GUGCCUUGCGCCGGGAAACCACGCAAGGGAUGGUGUCAAAUUCGGCGAAACCUAAGCGCCCGCCCGGGCGUAUGGCAACGCGGAGCCAAGCUUCGGCGCCUGCGCCGAUGGAGGUGUAGUGACUAGACGGCACCCACCUAAGGCCAACGCUAUGGUGAAGGCAUAGUCUAGGGAGAGGCGAAAGUCACACAAACCGG [C82G A111G A120U A145C C169U U176A] | 0.00244
10 | GUGCCUUGCGCCGGGAAACCACGCAAGGGAUGGUGUCAAAUUCGGCGAAACCUAAGCGCCCGCCCGGGCGUAUGGCAACGCGGAGCCAAGCUUCGGCGCCUGCGCCGAUGGAGGUGUAGUGACUAGACGGCACCCACCUAAGGCGAACGAUAUGGUGAAGGCAUAGUCCAGGGAGAGGCGAAAGUCACACAAACCGG [C82G A111G A120U A145G C150A U176A] | 0.00897
11 | GUGCCUUGCGCCGGGAAACCACGCAAGGGAUGGUGUCAAAUUCGGCGAAACCUAAGCGCCCGCCCGGGCGUAUGGCAACGCGGAGCCAAGCUUCGGCGCCUGCGCCGAUGGAGGUGUAGUGACUAGACGGCACCCACCUAAGGCGAACGAUAUGGUGAAGGCAUAGUCCAGGGAGCGGCGAAAGUCACACAAACCGG [C82G A111G A120U A145G C150A U176C] | 0.00919
12 | GUGCCUUGCGCCGGGAAACCACGCAAGGGAUGGUGUCAAAUUCGGCGAAACCUAAGCGCCCGCCCGGGCGUAUGGCAACGCGGAGCCAAGCUUCGGCGCCUGCGCCGAUGGAGGUGUAGUGACUAGACGGCACCCACCUAAGGCCAACGCUAUGGUGAAGGCAUAGUCUAGGGAGUGGCGAAAGUCACACAAACCGG [C82G A111G A120U A145C C169U] | 0.00478
13 | GUGCCUUGCGCCGGGAAACCACGCAAGGGAUGGUGUCAAAUUCGGCGAAACCUAAGCGCCCGCCCGGGCGUAUGGCAACGCGGAGCCAAGCUUCGGCGCCUGCGCCGAUGGAGGUGUAGUGACUAGACGGCACCCACCUAAGGCCAACGCUAUGGUGAAGGCAUAGUCGAGGGAGUGGCGAAAGUCACACAAACCGG [C82G A111G A120U A145C C169G] | 0.00347
14 | GUGCCUUGCGCCGGGAAACCACGCAAGGGAUGGUGUCAAAUUCGGCGAAACCUAAGCGCCCGCCCGGGCGUAUGGCAACGCGGAGCCAAGCUUCGGCGCCUGCGCCGAUGGAGGUGUAGUGACUAGACGGCACCCACCUAAGGCGAACGAUAUGGUGAAGGCAUAGUCCAGGGAGUGGCGAAAGUCACACAAACCGG [C82G A111G A120U A145G C150A] | 0.0116
15 | GUGCCUUGCGCCGGGAAACCACGCAAGGGAUGGUGUCAAAUUCGGCGAAACCUAAGCGCCCGCCCGGGCGUAUGGCAACGCGGAGCCAAGCUUCGGCGCCUGCGCCGAUGGAGGUGUAGUGACUAGACGGCACCCACCUAAGGCGAACGAUAUGGUGAAGGCAUAGUCUAGGGAGGGGCGAAAGUCACACAAACCGG [C82G A111G A120U A145G C150A C169U U176G] | 0.00259
